Data taken from the Immune Epitope Database (IEDB).

Columns and labels:
HLA-B*58:01 [1] = experiment: IEDB peptide-MHC binding, purified MHC/direct/fluorescence; filed as Kd, often an IC50 or EC50 that approximates it; ≥ and ≤ were set here for values at or beyond the usual limits of such assays
HLA-A*11:01 [2] = experiment: as above
HLA-B*27:05 = experiment: as above
HLA-A*24:03 [3] = experiment: as above
HLA-A*03:01 [4] = experiment: as above
HLA-B*40:01 = experiment: as above
HLA-A*69:01 [5] = experiment: as above
HLA-B*44:02 = experiment: as above
HLA-A*01:01 [6] = experiment: as above
HLA-A*02:01 [7] = experiment: as above
HLA-A*31:01 = experiment: as above
HLA-A*26:01 [8] = experiment: as above
HLA-B*15:01 [9] = experiment: as above
HLA-B*07:02 [10] = experiment: as above
HLA-B*08:01 [11] = experiment: as above
HLA-A*30:01 = experiment: as above
HLA-C*05:01 = experiment: as above
HLA-B*46:01 [12] = experiment: IEDB peptide-MHC binding, purified MHC/competitive/fluorescence; filed as Kd, often an IC50 or EC50 that approximates it; ≥ and ≤ were set here for values at or beyond the usual limits of such assays; conditions: source organism: Homo sapiens
HLA-A*69:01 [13] = experiment: as above; conditions: source organism: Homo sapiens
HLA-B*27:03 = experiment: as above; conditions: source organism: Homo sapiens
HLA-B*57:01 = experiment: as above; conditions: source organism: Homo sapiens
HLA-B*39:01 = experiment: as above
HLA-B*51:01 = experiment: as above
HLA-A*26:01 [14] = experiment: as above; conditions: source organism: Homo sapiens
HLA-B*15:01 [15] = experiment: as above
HLA-B*18:01 = experiment: as above; conditions: source organism: Homo sapiens
HLA-B*58:01 [16] = experiment: as above
HLA-B*07:02 [17] = experiment: IEDB peptide-MHC binding, purified MHC/competitive/fluorescence; ≥ and ≤ were set here for values at or beyond the usual limits of such assays
HLA-A*03:01 [18] = experiment: as above
HLA-B*15:01 [19] = experiment: as above
HLA-A*02:01 [20] = experiment: as above; conditions: source organism: Zaire ebolavirus
HLA-B*08:01 [21] = experiment: as above
HLA-A*11:01 [22] = experiment: as above; conditions: source organism: Zaire ebolavirus
HLA-A*24:02 = experiment: as above; conditions: source organism: Zaire ebolavirus
HLA-A*24:03 [23] = experiment: IEDB peptide-MHC binding, purified MHC/competitive/fluorescence; filed as Kd, often an IC50 or EC50 that approximates it; ≥ and ≤ were set here for values at or beyond the usual limits of such assays
HLA-C*15:02 = experiment: IEDB peptide-MHC binding, purified MHC/direct/fluorescence; filed as Kd, often an IC50 or EC50 that approximates it; ≥ and ≤ were set here for values at or beyond the usual limits of such assays
HLA-A*03:01 [24] = experiment: IEDB peptide-MHC binding, purified MHC/competitive/fluorescence; filed as Kd, often an IC50 or EC50 that approximates it; ≥ and ≤ were set here for values at or beyond the usual limits of such assays; conditions: source organism: Escherichia coli B171
HLA-A*01:01 [25] = experiment: as above; conditions: source organism: Escherichia coli B171
HLA-B*46:01 [26] = experiment: IEDB peptide-MHC binding, purified MHC/direct/fluorescence; filed as Kd, often an IC50 or EC50 that approximates it; ≥ and ≤ were set here for values at or beyond the usual limits of such assays; conditions: source organism: Giardia lamblia ATCC 50803
[27] = source organism: Brucella melitensis
[28] = source organism: Escherichia coli str. K-12 substr. MG1655
[29] = source organism: Zaire ebolavirus
[30] = source organism: Pseudomonas aeruginosa UCBPP-PA14
[31] = source organism: Pseudomonas aeruginosa
[32] = source organism: Vaccinia virus Copenhagen
[33] = source organism: Coxiella burnetii
[34] = source organism: Bacillus anthracis str. A2012
[35] = source organism: Escherichia coli O157:H7
[36] = source organism: Escherichia coli B171
[37] = source organism: Giardia lamblia ATCC 50803

Sequence: RLWNGRRCR
- Kd (HLA-B*58:01 [1]; [27]): ≥ 20 µM
- Kd (HLA-A*11:01 [2]; [27]): 11.4 µM
- Kd (HLA-B*27:05; [27]): 2.04 µM
- Kd (HLA-A*24:03 [3]; [27]): ≥ 20 µM
- Kd (HLA-A*03:01 [4]; [27]): 0.634 µM
- Kd (HLA-B*40:01; [27]): ≥ 20 µM
- Kd (HLA-A*69:01 [5]; [27]): ≥ 20 µM
- Kd (HLA-B*44:02; [27]): ≥ 20 µM
- Kd (HLA-A*01:01 [6]; [27]): ≥ 20 µM
- Kd (HLA-A*02:01 [7]; [27]): ≥ 20 µM
- Kd (HLA-A*31:01; [27]): 0.0615 µM
- Kd (HLA-A*26:01 [8]; [27]): ≥ 20 µM
- Kd (HLA-B*15:01 [9]; [27]): ≥ 20 µM
- Kd (HLA-B*07:02 [10]; [27]): ≥ 20 µM
- Kd (HLA-B*08:01 [11]; [27]): ≥ 20 µM
- Kd (HLA-A*30:01; [27]): 1.75 µM

Sequence: VTDTALAYF
- Kd (HLA-A*01:01 [6]; source organism: Homo sapiens): 0.0009 µM
- Kd (HLA-C*05:01; source organism: Homo sapiens): 0.005 µM
- Kd (HLA-B*46:01 [12]): ≥ 20 µM
- Kd (HLA-A*69:01 [13]): ≥ 20 µM
- Kd (HLA-B*27:03): ≥ 20 µM
- Kd (HLA-B*57:01): ≥ 20 µM
- Kd (HLA-B*39:01; source organism: Homo sapiens): ≥ 20 µM
- Kd (HLA-B*51:01; source organism: Homo sapiens): ≥ 20 µM
- Kd (HLA-A*26:01 [14]): ≥ 20 µM
- Kd (HLA-B*15:01 [15]; source organism: Homo sapiens): ≥ 20 µM
- Kd (HLA-B*18:01): ≥ 20 µM

Sequence: LAWQRTLKW
- Kd (HLA-B*58:01 [16]; [28]): 0.0083 µM
- Kd (HLA-B*51:01; [28]): ≥ 20 µM

Sequence: NTPVYKLDI
- IC50 (HLA-B*07:02 [17]; [29]): ≥ 119 µM

Sequence: IIAVARKHH
- IC50 (HLA-A*03:01 [18]; source organism: Variola virus): 27.7 µM
- IC50 (HLA-B*15:01 [19]; source organism: Variola virus): 27.2 µM
- IC50 (HLA-B*07:02 [17]; source organism: Variola virus): 59.7 µM

Sequence: YQQLREAAT
- IC50 (HLA-A*02:01 [20]): 29.7 µM
- IC50 (HLA-B*08:01 [21]; [29]): ≥ 183 µM

Sequence: YTFCRLNVK
- Kd (HLA-B*58:01 [1]; [30]): ≥ 20 µM
- Kd (HLA-A*11:01 [2]; [31]): 0.0487 µM
- Kd (HLA-B*27:05; [30]): ≥ 20 µM
- Kd (HLA-A*24:03 [3]; [30]): ≥ 20 µM
- Kd (HLA-A*03:01 [4]; [31]): 0.213 µM
- Kd (HLA-B*40:01; [30]): ≥ 20 µM
- Kd (HLA-A*69:01 [5]; [30]): ≥ 20 µM
- Kd (HLA-A*01:01 [6]; [31]): 2.36 µM
- Kd (HLA-A*02:01 [7]; [31]): 11.5 µM
- Kd (HLA-A*31:01; [31]): 0.265 µM
- Kd (HLA-A*26:01 [8]; [30]): ≥ 20 µM
- Kd (HLA-B*15:01 [9]; [30]): ≥ 20 µM
- Kd (HLA-B*07:02 [10]; [30]): ≥ 20 µM
- Kd (HLA-B*08:01 [11]; [31]): 10.6 µM
- Kd (HLA-A*30:01; [31]): 0.0138 µM

Sequence: VGHMMVIFR
- IC50 (HLA-A*11:01 [22]): 0.196 µM
- IC50 (HLA-A*24:02): ≥ 271 µM
- IC50 (HLA-A*03:01 [18]; [29]): ≥ 218 µM
- IC50 (HLA-A*02:01 [20]): 3.68 µM
- IC50 (HLA-B*15:01 [19]; [29]): ≥ 1340 µM
- IC50 (HLA-B*08:01 [21]; [29]): ≥ 185 µM

Sequence: TAKVKNEVN
- IC50 (HLA-B*08:01 [21]; [29]): ≥ 365 µM

Sequence: KWGKKIILF
- Kd (HLA-A*24:03 [23]; source organism: Bacillus anthracis str. A0488): 0.0003 µM

Sequence: IQARPCDRW
- Kd (HLA-B*58:01 [16]; source organism: Escherichia coli 536): 0.19 µM

Sequence: LHPLARTAK
- IC50 (HLA-A*11:01 [22]): 15.4 µM
- IC50 (HLA-A*03:01 [18]; [29]): 34.6 µM
- IC50 (HLA-B*07:02 [17]; [29]): ≥ 158 µM
- IC50 (HLA-B*08:01 [21]; [29]): ≥ 277 µM

Sequence: MASENSSAM
- IC50 (HLA-A*02:01 [20]): 12.1 µM
- IC50 (HLA-B*15:01 [19]; [29]): 21.9 µM
- IC50 (HLA-B*07:02 [17]; [29]): 28.4 µM

Sequence: FINKLNGAM
- IC50 (HLA-B*15:01 [19]; [32]): 27.6 µM
- IC50 (HLA-B*08:01 [21]; [32]): ≥ 138 µM

Sequence: VSSFQDILL
- Kd (HLA-B*58:01 [16]; source organism: Influenza A virus (A/X-31(H3N2))): 0.687 µM

Sequence: KGPDKLQVY
- Kd (HLA-B*58:01 [1]; [33]): ≥ 20 µM
- Kd (HLA-A*11:01 [2]; [33]): ≥ 20 µM
- Kd (HLA-B*27:05; [33]): ≥ 20 µM
- Kd (HLA-A*03:01 [4]; [33]): ≥ 20 µM
- Kd (HLA-B*40:01; [33]): ≥ 20 µM
- Kd (HLA-A*69:01 [5]; [33]): ≥ 20 µM
- Kd (HLA-B*44:02; [33]): ≥ 20 µM
- Kd (HLA-A*01:01 [6]; [33]): ≥ 20 µM
- Kd (HLA-A*02:01 [7]; [33]): ≥ 20 µM
- Kd (HLA-A*31:01; [33]): ≥ 20 µM
- Kd (HLA-A*26:01 [8]; [33]): ≥ 20 µM
- Kd (HLA-B*15:01 [9]; [33]): 2.42 µM
- Kd (HLA-B*07:02 [10]; [33]): ≥ 20 µM
- Kd (HLA-B*08:01 [11]; [33]): ≥ 20 µM
- Kd (HLA-A*30:01; [33]): 12.3 µM

Sequence: NAFHHPSAV
- Kd (HLA-C*15:02; source organism: Homo sapiens): 0.695 µM

Sequence: EVNSFKAAL
- IC50 (HLA-A*24:02): 33.2 µM
- IC50 (HLA-A*02:01 [20]): ≥ 236 µM
- IC50 (HLA-B*07:02 [17]; [29]): ≥ 139 µM
- IC50 (HLA-B*08:01 [21]; [29]): ≥ 85.9 µM

Sequence: RAFSLYMTL
- Kd (HLA-C*15:02; [34]): 0.466 µM
- Kd (HLA-A*24:03 [23]; [34]): 0.0586 µM

Sequence: GITGGHIPK
- Kd (HLA-B*58:01 [1]; [35]): ≥ 20 µM
- Kd (HLA-A*11:01 [2]; [35]): 0.101 µM
- Kd (HLA-B*27:05; [35]): ≥ 20 µM
- Kd (HLA-A*24:03 [3]; [35]): ≥ 20 µM
- Kd (HLA-A*03:01 [4]; [35]): 0.392 µM
- Kd (HLA-B*40:01; [35]): ≥ 20 µM
- Kd (HLA-A*69:01 [5]; [35]): ≥ 20 µM
- Kd (HLA-B*44:02; [35]): ≥ 20 µM
- Kd (HLA-A*01:01 [6]; [35]): ≥ 20 µM
- Kd (HLA-A*02:01 [7]; [35]): ≥ 20 µM
- Kd (HLA-A*31:01; [35]): ≥ 20 µM
- Kd (HLA-A*26:01 [8]; [35]): ≥ 20 µM
- Kd (HLA-B*15:01 [9]; [35]): ≥ 20 µM
- Kd (HLA-B*07:02 [10]; [35]): ≥ 20 µM
- Kd (HLA-B*08:01 [11]; [35]): ≥ 20 µM
- Kd (HLA-A*30:01; [35]): 0.0722 µM

Sequence: EKVQRQIQV
- IC50 (HLA-B*08:01 [21]; [29]): ≥ 181 µM

Sequence: AKIEAPLLL
- Kd (HLA-C*15:02; [28]): ≥ 20 µM
- Kd (HLA-B*39:01; [28]): 0.0075 µM

Sequence: VSALRLFNY
- Kd (HLA-B*58:01 [16]; [36]): 1.02 µM
- Kd (HLA-A*03:01 [24]): ≥ 20 µM
- Kd (HLA-A*01:01 [25]): 0.787 µM
- Kd (HLA-B*15:01 [15]; [36]): 0.796 µM

Sequence: VLASGPGPF
- Kd (HLA-B*46:01 [26]): ≥ 20 µM
- Kd (HLA-C*05:01; [37]): ≥ 20 µM
- Kd (HLA-B*15:01 [9]; [37]): 0.0184 µM
- Kd (HLA-B*07:02 [10]; [37]): 9.38 µM
